Consider 4 molecules from paper PMC5379953 (The Journal of Cell Biology, 2017).

The chains are these.
B2: human Spindly^2–359::Strep-tag II (N-terminal coiled-coil region) (domain or fragment, UniProt Q96EA4 2-359, looked up)
chain: EADIITNLRCRLKEAEEERLKAAQYGLQLVESQNELQNQLDKCRNEMMTMTESYEQEKYTLQREVELKSRMLESLSCECEAIKQQQKMHLEKLEEQLSRSHGQEVNELKTKIEKLKVELDEARLSEKQLKHQVDHQKELLSCKSEELRVMSERVQESMSSEMLALQIELTEMESMKTTLKEEVNELQYRQEQLELLITNLMRQVDRLKEEKEEREKEAVSYYNALEKARVANQDLQVQLDQALQQALDPNSKGNSLFAEVEDRRAAMERQLISMKVKYQSLKKQNVFNREQMQRMKLQIATLLQMKGSQTEFEQQERLLAMLEQKNGEIKHLLGEIRNLEKFKNLYDSMESKPSVDSG

The target in experiment [1] is GST::LIC1::6×His, full-length dynein light intermediate chain 1 (residues 1–523) (human, UniProt Q9Y6G9 1-523). Nature of the experiment: pull-down.
The target of experiment [2] is B2. The experiment can be described thus: pull-down.

B1: human BICD2^2–422::Strep-tag II (domain or fragment, UniProt Q8TD16 2-422, looked up)
chain: SAPSEEEEYARLVMEAQPEWLRAEVKRLSHELAETTREKIQAAEYGLAVLEEKHQLKLQFEELEVDYEAIRSEMEQLKEAFGQAHTNHKKVAADGESREESLIQESASKEQYYVRKVLELQTELKQLRNVLTNTQSENERLASVAQELKEINQNVEIQRGRLRDDIKEYKFREARLLQDYSELEEENISLQKQVSVLRQNQVEFEGLKHEIKRLEEETEYLNSQLEDAIRLKEISERQLEEALETLKTEREQKNSLRKELSHYMSINDSFYTSHLHVSLDGLKFSDDAAEPNNDAEALVNGFEHGGLAKLPLDNKTSTPKKEGLAPPSPSLVSDLLSELNISEIQKLKQQLMQMEREKAGLLATLQDTQKQLEHTRGSLSEQQEKVTRLTENLSALRRLQASKERQTALDNEKDRDSHEDG
B1: the binding result in experiment [1] was “binds”. For B2, the binding result in experiment [1] was “binds”.

B3: human Spindly^2–359 F258A::Strep-tag II (domain or fragment, UniProt Q96EA4 2-359, looked up)
chain: EADIITNLRCRLKEAEEERLKAAQYGLQLVESQNELQNQLDKCRNEMMTMTESYEQEKYTLQREVELKSRMLESLSCECEAIKQQQKMHLEKLEEQLSRSHGQEVNELKTKIEKLKVELDEARLSEKQLKHQVDHQKELLSCKSEELRVMSERVQESMSSEMLALQIELTEMESMKTTLKEEVNELQYRQEQLELLITNLMRQVDRLKEEKEEREKEAVSYYNALEKARVANQDLQVQLDQALQQALDPNSKGNSLAAEVEDRRAAMERQLISMKVKYQSLKKQNVFNREQMQRMKLQIATLLQMKGSQTEFEQQERLLAMLEQKNGEIKHLLGEIRNLEKFKNLYDSMESKPSVDSG
B3: the binding result in experiment [1] was “binds”.

B4: GST::LIC1::6×His C-terminal region (residues 388–523) (domain or fragment, human, UniProt Q9Y6G9 388-523, looked up)
chain: PTAAGRPVDASPRVPGGSPRTPNRSVSSNVASVSPIPAGSKKIDPNMKAGATSEGVLANFFNSLLSKKTGSPGGPGVSGGSPAGGAGGGSSGLPPSTKKSGQKPVLDVHAELDRITRKPVTVSPTTPTSPTEGEAS
Regarding B4, the binding result in experiment [2] is on record as “binds”.
